Laboratory results from article PMC6750902.

Assays:
[1] = molecular target: Anti-CRISPR protein AcrIIC2; assay: AUC
[2] = molecular target: Neisseria meningitidis Cas9 (NmeCas9), full length (Neisseria meningitidis) (UniProt C9X1G5); assay: SEC + other: quantitative SDS-PAGE against standards
NmeCas9 = molecular target: T1, NmeCas9 (Neisseria meningitidis, UniProt C9X1G5 1-1082); assay: DRaCALA
T1 sequence: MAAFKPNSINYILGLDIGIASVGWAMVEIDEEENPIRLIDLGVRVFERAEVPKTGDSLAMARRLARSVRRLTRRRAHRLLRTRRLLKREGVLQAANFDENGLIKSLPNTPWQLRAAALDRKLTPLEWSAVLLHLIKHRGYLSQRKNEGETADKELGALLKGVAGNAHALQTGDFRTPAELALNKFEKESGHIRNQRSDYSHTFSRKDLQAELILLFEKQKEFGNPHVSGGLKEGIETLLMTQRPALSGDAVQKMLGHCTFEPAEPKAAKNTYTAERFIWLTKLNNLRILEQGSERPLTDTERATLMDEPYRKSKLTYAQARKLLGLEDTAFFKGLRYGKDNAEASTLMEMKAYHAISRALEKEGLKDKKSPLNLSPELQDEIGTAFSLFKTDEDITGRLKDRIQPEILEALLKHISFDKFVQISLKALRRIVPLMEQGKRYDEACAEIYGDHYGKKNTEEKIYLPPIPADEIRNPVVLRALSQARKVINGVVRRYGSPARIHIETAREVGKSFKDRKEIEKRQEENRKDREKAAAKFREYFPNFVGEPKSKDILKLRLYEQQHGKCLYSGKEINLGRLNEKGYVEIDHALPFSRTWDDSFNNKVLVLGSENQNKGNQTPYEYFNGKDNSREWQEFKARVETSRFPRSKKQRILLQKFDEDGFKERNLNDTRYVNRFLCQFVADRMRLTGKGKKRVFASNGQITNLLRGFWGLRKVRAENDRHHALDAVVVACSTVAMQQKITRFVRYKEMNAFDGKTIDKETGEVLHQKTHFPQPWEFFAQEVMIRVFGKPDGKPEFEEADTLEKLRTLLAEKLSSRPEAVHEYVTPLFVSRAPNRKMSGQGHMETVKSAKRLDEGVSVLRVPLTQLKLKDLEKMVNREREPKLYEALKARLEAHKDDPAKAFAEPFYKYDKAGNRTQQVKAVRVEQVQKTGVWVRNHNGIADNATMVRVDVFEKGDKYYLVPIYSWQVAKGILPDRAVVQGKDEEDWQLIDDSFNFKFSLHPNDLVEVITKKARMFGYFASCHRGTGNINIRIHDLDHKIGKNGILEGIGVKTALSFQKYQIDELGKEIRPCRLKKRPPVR

“Anti-CRISPR protein AcrIIC2 (natural protein)” was tested. Which stoichiometry N [1] did it give?
Its stoichiometry N is 2.

With “Anti-CRISPR protein AcrIIC3 (natural protein)” as the molecule, how does the stoichiometry N (AcrIIC3 per Cas9 (printed as 2:2)) [2] read?
The stoichiometry N (AcrIIC3 per Cas9 (printed as 2:2)) was 1.

B1: NmeCas9 sgRNA, 94 nt (binding assay) (structured_RNA)
RNA: GGCUCCUCAGAUGUAGUAUUCAGAGUUGUAGCUCCCUUUCUGAAAAGAACCGUUGCUACAAUAAGGCCGUCUGAAAAGAUGUGCCGCAACGCUC
B1 was tested. Which Kd (NmeCas9) did it give?
Its Kd is 1.66 nM.
